Experimental data: patent US11938104B1, “Compositions and methods for prevention and treatment of coronavirus and related disorders” (Abrexa Pharmaceuticals, Inc., priority 2021, dated 2024)

Test system: Male SD rats
Assay: Thromboembolic MCAO, J147+tPA expanded study, 72 h (Example 4)
Assay type: in vivo, rat
Protocol: Objective: To determine whether J147 can prevent tPA-associated brain hemorrhage and extend the treatment time window of tPA in a clinically relevant thromboembolic stroke model in rats. • J147 compound: Stock solution: 60 mg/ml DMSO, in 60 ul/vial, stored at −20° C. • Working solution: 3 mg/ml in 5% DMSO, 70% PEG200 and 25% normal saline, prepared prior to injection. • One vial stock solution was warmed at 37° C. and mixed with 1140 ul sterilized solution (PEG200: saline, 2.8:1). • Recombinant human tPA (Alteplase, 2.2 mg/vial): Reconstituted with 1.1 ml water (2 mg/ml). 10 mg/kg, 10% bonus injection, 90% 30 min. via mini pump.
Methods: Male SD rats (280-300 g) were subjected to thromboembolic middle cerebral artery occlusion (MCAO) and treated with saline at 4 hours, tPA (tissue-type plasminogen activator; 10 mg/kg, IV) at 4 hours, and combined J147 (10 mg/kg, IV) plus tPA at 4 hours after onset of ischemia. Bederson score was examined prior to the sacrifice at 72 h after stroke. Infarct volumes, brain hemorrhage, and animal mortality were measured.
Conclusion: J147 plus tPA combination treatment attenuates tPA-associated hemorrhage and alleviates brain damage after eMCAO. Consequently, the use of J147 in combination with tPA may extend the length of the therapeutic window for administration of tPA following an ischemic event and thereby increase the number of stroke patients that could benefit from use of tPA. • J147 compound: Stock solution: 60 mg/ml DMSO, in 60 ul/vial, stored at −20° C. • Working solution: 3 mg/ml in 5% DMSO, 70% PEG200 and 25% normal saline, prepared prior to injection. One vial stock solution was warmed at 37° C. and mixed with 1140 ul sterilized solution (PEG200: saline, 2.8:1). • Recombinant human tPA (Alteplase, 2.2 mg/vial): Reconstituted with 1.1 ml water (2 mg/ml). 10 mg/kg, 10% bonus injection, 90% 30 min. via mini pump.

[1] = tPA 10 mg/kg IV, J147 10 mg/kg IV, at 4 hours after onset of ischemia, 72 h after stroke

B1: tPA: Recombinant human tPA (Alteplase); tissue plasminogen activator, thrombolytic approved by the FDA for the treatment of stroke (protein, UniProt P00750 36-562, looked up)
Tissue-type plasminogen …: SYQVICRDEKTQMIYQQHQSWLRPVLRSNRVEYCWCNSGRAQCHSVPVKSCSEPRCFNGGTCQQALYFSDFVCQCPEGFAGKCCEIDTRATCYEDQGISYRGTWSTAESGAECTNWNSSALAQKPYSGRRPDAIRLGLGNHNYCRNPDRDSKPWCYVFKAGKYSSEFCSTPACSEGNSDCYFGNGSAYRGTHSLTESGASCLPWNSMILIGKVYTAQNPSAQALGLGKHNYCRNPDGDAKPWCHVLKNRRLTWEYCDVPSCSTCGLRQYSQPQFRIKGGLFADIASHPWQAAIFAKHRRSPGERFLCGGILISSCWILSAAHCFQERFPPHHLTVILGRTYRVVPGEEEQKFEVEKYIVHKEFDDDTYDNDIALLQLKSDSSRCAQESSVVRTVCLPPADLQLPDWTECELSGYGKHEALSPFYSERLKEAHVRLYPSSRCTSQHLLNRTVTDNMLCAGDTRSGGPQANLHDACQGDSGGPLVCLNDGRMTLVGIISWGLGCGQKDVPGVYTKVTNYLDWIRDNMRP
For B1, which “brain hemorrhage / hemorrhagic transformation” value [1] is on record?
The value was “worsened”.

What about the “brain infarction / infarct volume” value [1] of the same molecule?
The value was “did not decrease”.

And the mortality rate (treatment at 4 h after onset of ischemia, log-rank test *p < 0.05 vs Saline or tPA alone group)?
The mortality rate was 32%.

And the “Death (number of rats)” value (treatment at 4 h after onset of ischemia, tPA n = 22, J147 plus tPA n = 17)?
The value was 7.
